This note sets out measurements from the supplement of paper PMC7125110.

First the molecules themselves.
B1: glmS ribozyme (parent)
chain: AUAAAAGCGCCAGAACUACAGAAAUGUAGUUGACGAGGAGGAGGUUUAUCGAAUUUUCGGCGGAUGCCUCCAAA

± gives the standard error. This sample holds only a part of the variants without activity.

What all share (details): with glucosamine-6-phosphate
In series [1] the parent is B1. Description: self-cleavage kobs at 40 uM GlcN6P; higher = faster cleavage; RNA array. Summed up: (§1)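 Barcoded ribozyme variants were transcribed in situ on sequenced MiSeq chips by E. coli RNA polymerase. At 37 °C, a hybridised Cy3 probe tracked them while glucosamine-6-phosphate (40 μM to 10 mM) in HEPES/KCl/Mg(OAc)2 buffer flowed in and tiles were imaged over ~14 h. Per-tile medians of signals normalised to baseline and to non-cleaving reference variants were fit to one- or two-exponential decays, giving kobs. kcat and KM came from weighted Michaelis–Menten fits across concentrations.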

In series [2] the parent is B1. Nature of the series: self-cleavage kobs at 160 uM GlcN6P; higher = faster cleavage; RNA array. In outline: as §1
In series [3] the parent is B1. Description: self-cleavage kobs at 640 uM GlcN6P; higher = faster cleavage; RNA array. In outline:
as §1

Variants of B1 are the subject of series [4]. Nature of the series: self-cleavage kobs at 10000 uM GlcN6P; higher = faster cleavage; RNA array. In outline:
as §1

In series [5] the parent is B1. Nature of the series: self-cleavage kobs at 2500 uM GlcN6P; higher = faster cleavage; RNA array. Summed up:
as §1

Consider A42C C68G, for which the “self-cleavage kobs at 40 uM GlcN6P” value in the series with glucosamine-6-phosphate [1] is under 1e-05 s⁻¹. Besides, the “self-cleavage kobs at 160 uM GlcN6P” value with glucosamine-6-phosphate [2] was under 1e-05 s⁻¹. The “self-cleavage kobs at 640 uM GlcN6P” value with glucosamine-6-phosphate [3] was under 1e-05 s⁻¹.

Consider A12U C16G U56G G59U, for which the “self-cleavage kobs at 40 uM GlcN6P” value with glucosamine-6-phosphate [1] is under 1e-05 s⁻¹.

In the case of A33U C34U G60U, the “self-cleavage kobs at 40 uM GlcN6P” value with glucosamine-6-phosphate [1] was under 1e-05 s⁻¹.

A14G A15U G29A: the “self-cleavage kobs at 40 uM GlcN6P” value with glucosamine-6-phosphate [1] was determined as 3.49e-05 ± 1.3e-05 s⁻¹. Besides, the “self-cleavage kobs at 10000 uM GlcN6P” value with glucosamine-6-phosphate [4] was 0.00133 ± 0.00028 s⁻¹.

As for G9C A12C A14U U49G, the “self-cleavage kobs at 40 uM GlcN6P” value with glucosamine-6-phosphate [1] was under 1e-05 s⁻¹. Also, in the series with glucosamine-6-phosphate [5], the “self-cleavage kobs at 2500 uM GlcN6P” value is under 1e-05 s⁻¹.

As for G7A G51U, the “self-cleavage kobs at 40 uM GlcN6P” value with glucosamine-6-phosphate [1] was under 1e-05 s⁻¹. Moreover, the “self-cleavage kobs at 160 uM GlcN6P” value in the series with glucosamine-6-phosphate [2] was under 1e-05 s⁻¹. Further, the “self-cleavage kobs at 640 uM GlcN6P” value with glucosamine-6-phosphate [3] was under 1e-05 s⁻¹. The “self-cleavage kobs at 2500 uM GlcN6P” value with glucosamine-6-phosphate [5] was under 1e-05 s⁻¹.

Turning to A6U U31C C50G, in the series with glucosamine-6-phosphate [1], the “self-cleavage kobs at 40 uM GlcN6P” value is 7.08e-05 ± 1.6e-05 s⁻¹. Further, in the series with glucosamine-6-phosphate [4], the “self-cleavage kobs at 10000 uM GlcN6P” value worked out at 3.4e-05 ± 1.4e-05 s⁻¹.

For the variant C11U G29U C50U C71G, the “self-cleavage kobs at 40 uM GlcN6P” value in the series with glucosamine-6-phosphate [1] was determined as 4.57e-05 ± 2.1e-05 s⁻¹.

In the case of G7U G38U U46G, in the series with glucosamine-6-phosphate [1], the “self-cleavage kobs at 40 uM GlcN6P” value is under 1e-05 s⁻¹.

C11G A36C U55C: in the series with glucosamine-6-phosphate [1], the “self-cleavage kobs at 40 uM GlcN6P” value is under 1e-05 s⁻¹. Besides, the “self-cleavage kobs at 640 uM GlcN6P” value with glucosamine-6-phosphate [3] is under 1e-05 s⁻¹.

Consider C34G G37A G44C C50G A53G G66U, for which the “self-cleavage kobs at 40 uM GlcN6P” value with glucosamine-6-phosphate [1] was under 1e-05 s⁻¹. In the series with glucosamine-6-phosphate [4], the “self-cleavage kobs at 10000 uM GlcN6P” value is under 1e-05 s⁻¹.

As to A12U U55A, the “self-cleavage kobs at 40 uM GlcN6P” value with glucosamine-6-phosphate [1] is 0.00252 ± 0.00039 s⁻¹. Moreover, in the series with glucosamine-6-phosphate [2], the “self-cleavage kobs at 160 uM GlcN6P” value turned out to be 0.00433 ± 0.0018 s⁻¹. In addition, the “self-cleavage kobs at 640 uM GlcN6P” value in the series with glucosamine-6-phosphate [3] was found to be 0.0231 ± 0.0089 s⁻¹. In addition, in the series with glucosamine-6-phosphate [4], the “self-cleavage kobs at 10000 uM GlcN6P” value worked out at 0.0587 ± 0.02 s⁻¹.

Consider G32A A53U U65C, for which the “self-cleavage kobs at 40 uM GlcN6P” value with glucosamine-6-phosphate [1] is under 1e-05 s⁻¹. Besides, in the series with glucosamine-6-phosphate [2], the “self-cleavage kobs at 160 uM GlcN6P” value was under 1e-05 s⁻¹. Also, the “self-cleavage kobs at 640 uM GlcN6P” value with glucosamine-6-phosphate [3] is under 1e-05 s⁻¹.

Consider C8U G13C, for which, in the series with glucosamine-6-phosphate [1], the “self-cleavage kobs at 40 uM GlcN6P” value is under 1e-05 s⁻¹. The “self-cleavage kobs at 160 uM GlcN6P” value with glucosamine-6-phosphate [2] was under 1e-05 s⁻¹. Also, the “self-cleavage kobs at 640 uM GlcN6P” value with glucosamine-6-phosphate [3] was under 1e-05 s⁻¹. The “self-cleavage kobs at 10000 uM GlcN6P” value with glucosamine-6-phosphate [4] is under 1e-05 s⁻¹.

Regarding C10U G37C A42C, the “self-cleavage kobs at 40 uM GlcN6P” value with glucosamine-6-phosphate [1] is under 1e-05 s⁻¹. Further, the “self-cleavage kobs at 2500 uM GlcN6P” value with glucosamine-6-phosphate [5] is under 1e-05 s⁻¹. Also, the “self-cleavage kobs at 10000 uM GlcN6P” value with glucosamine-6-phosphate [4] is under 1e-05 s⁻¹.

For the variant C10G G32U A36C G40U G63U, in the series with glucosamine-6-phosphate [1], the “self-cleavage kobs at 40 uM GlcN6P” value was under 1e-05 s⁻¹. Also, in the series with glucosamine-6-phosphate [5], the “self-cleavage kobs at 2500 uM GlcN6P” value was under 1e-05 s⁻¹. In addition, the “self-cleavage kobs at 10000 uM GlcN6P” value with glucosamine-6-phosphate [4] is under 1e-05 s⁻¹.

On to G32A A39C G44U, for which the “self-cleavage kobs at 40 uM GlcN6P” value with glucosamine-6-phosphate [1] is under 1e-05 s⁻¹. In addition, the “self-cleavage kobs at 10000 uM GlcN6P” value with glucosamine-6-phosphate [4] was under 1e-05 s⁻¹.

C50U G51U: in the series with glucosamine-6-phosphate [1], the “self-cleavage kobs at 40 uM GlcN6P” value is under 1e-05 s⁻¹. Moreover, the “self-cleavage kobs at 10000 uM GlcN6P” value with glucosamine-6-phosphate [4] was under 1e-05 s⁻¹.

For the variant G37U G41C C70U, the “self-cleavage kobs at 40 uM GlcN6P” value with glucosamine-6-phosphate [1] is under 1e-05 s⁻¹.

Turning to A6U C50A, in the series with glucosamine-6-phosphate [1], the “self-cleavage kobs at 40 uM GlcN6P” value was under 1e-05 s⁻¹. Further, the “self-cleavage kobs at 160 uM GlcN6P” value with glucosamine-6-phosphate [2] is under 1e-05 s⁻¹. Besides, the “self-cleavage kobs at 640 uM GlcN6P” value in the series with glucosamine-6-phosphate [3] was under 1e-05 s⁻¹.

As for G29C G37U G63U, the “self-cleavage kobs at 40 uM GlcN6P” value in the series with glucosamine-6-phosphate [1] was under 1e-05 s⁻¹.

As for A6U A12U G32U G60U, the “self-cleavage kobs at 40 uM GlcN6P” value with glucosamine-6-phosphate [1] is under 1e-05 s⁻¹.

Take U30C U31C: the “self-cleavage kobs at 40 uM GlcN6P” value with glucosamine-6-phosphate [1] worked out at 3.3e-05 ± 1.1e-05 s⁻¹. In addition, in the series with glucosamine-6-phosphate [2], the “self-cleavage kobs at 160 uM GlcN6P” value was determined as 0.000413 ± 7.4e-05 s⁻¹. The “self-cleavage kobs at 640 uM GlcN6P” value with glucosamine-6-phosphate [3] is 0.000788 ± 0.00016 s⁻¹. Also, the “self-cleavage kobs at 2500 uM GlcN6P” value with glucosamine-6-phosphate [5] was found to be 0.00125 ± 0.00016 s⁻¹. In addition, the “self-cleavage kobs at 10000 uM GlcN6P” value with glucosamine-6-phosphate [4] was determined as 0.00328 ± 0.00041 s⁻¹.

On to U31C G51C, for which, in the series with glucosamine-6-phosphate [1], the “self-cleavage kobs at 40 uM GlcN6P” value is under 1e-05 s⁻¹. In addition, the “self-cleavage kobs at 2500 uM GlcN6P” value with glucosamine-6-phosphate [5] is under 1e-05 s⁻¹. For the same variant, in the series with glucosamine-6-phosphate [4], the “self-cleavage kobs at 10000 uM GlcN6P” value was under 1e-05 s⁻¹.

For A6G A15C A53G, in the series with glucosamine-6-phosphate [1], the “self-cleavage kobs at 40 uM GlcN6P” value is under 1e-05 s⁻¹. Besides, the “self-cleavage kobs at 2500 uM GlcN6P” value in the series with glucosamine-6-phosphate [5] turned out to be 6.25e-05 ± 2e-05 s⁻¹.

Consider U30C G35C G59C, for which the “self-cleavage kobs at 40 uM GlcN6P” value with glucosamine-6-phosphate [1] was under 1e-05 s⁻¹. The “self-cleavage kobs at 10000 uM GlcN6P” value in the series with glucosamine-6-phosphate [4] is under 1e-05 s⁻¹.

Regarding G7U G29C, in the series with glucosamine-6-phosphate [1], the “self-cleavage kobs at 40 uM GlcN6P” value was under 1e-05 s⁻¹. The “self-cleavage kobs at 160 uM GlcN6P” value with glucosamine-6-phosphate [2] is under 1e-05 s⁻¹. The “self-cleavage kobs at 640 uM GlcN6P” value in the series with glucosamine-6-phosphate [3] was under 1e-05 s⁻¹. Besides, the “self-cleavage kobs at 2500 uM GlcN6P” value with glucosamine-6-phosphate [5] was under 1e-05 s⁻¹. Moreover, in the series with glucosamine-6-phosphate [4], the “self-cleavage kobs at 10000 uM GlcN6P” value was under 1e-05 s⁻¹.
